Experimental findings from the RNAGym collection of RNA variant scans (doi:10.1073/pnas.2313332121) are described below.

B1: TPR 5TU (parent)
chain: GGAUCUUCUCGAUCUAACAAAAAAGACAAAUCUGCCACAAAGCUUGAGAGCAUCUUCGGAUGCAGAGGCGGCAGCCUUCGGUGGCGCGAUAGCGCCAACGUUCUCAACUAUGACACGCAAAACGCGUGCUCCGUUGAAUGGAGUUUAUCAUG

This sample holds only a part of the variants without activity.

Variants of B1 are the subject of the series. Put plainly: polymerase ribozyme fitness, log enrichment relative to wild type (log ratio); higher = more active; in vitro selection for triplet polymerase activity. The gist of the method:
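Streptavidin-bead capture of gel-excised extended constructs, followed by RT-PCR, closed a single triplicate in vitro selection round. That round began by annealing PCR-built, transcribed mutant libraries of each subunit of a heterodimeric triplet polymerase ribozyme with a biotinylated primer, the partner subunit and triplets, then incubating them frozen at −7 °C. After Illumina sequencing of inputs and outputs, genotypes needed ≥10 input reads and ≥1 read per output. Fitness is the base-2 logarithm of genotype enrichment over wild-type enrichment, using inverse-variance-weighted replicate averages.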
For A40G C63G C85U U145A, the “polymerase ribozyme fitness (log ratio)” value is -2.16.
Next, A40U C87U G88U: at most -4.2.
On to A39U C93A C105G A113U C114G, for which the “polymerase ribozyme fitness (log ratio)” value is at most -4.2.
The value for A40C A49C C54A C96U C114U G126A was at most -4.2; that for A40C U82G G94A was 0.746; that for A40U G50C C85U was -2.29.
Next, A40G C149A: -3.98.
Next, A40G C85G U111G U151C: at most -4.2; A40C A98G C131U U134A: -2.13; A40U U55G C95U C105G C116G: -3.94.
Turning to A40U C57U A89C C99G A119G, the “polymerase ribozyme fitness (log ratio)” value is -1.22.
The value for A40C A49U C57A C76A U82C G94U was at most -4.2; that for A40C G50A C72U U78C C87U was at most -4.2.
The value for A40C A52C G86A A98G was -2.37; that for A39U C118U was -2.03.
In the case of A40U U61A A107U G128U U151C, the “polymerase ribozyme fitness (log ratio)” value is at most -4.2.
Turning to A40U C76A C79A C114U G143U U146C U148A, the “polymerase ribozyme fitness (log ratio)” value is at most -4.2.
Next, A40U G84A: -0.341.
As for A40G A91G A115G C116G A142C, the “polymerase ribozyme fitness (log ratio)” value was at most -4.2.
Next, A40C U56A G128C: -3.92; A41C A49C G81A A97C C103G G124U U134C: at most -4.2.
Next, A40C C85U: -0.549.
Next, A40C C85A: -2.39.
A40C C57U A60G U61A: the “polymerase ribozyme fitness (log ratio)” value was -2.29.
Next, A40C U55A U104C: -0.475; A40G U56G C85A A115U U134C: -4.09; A39U G74A C85U A91C C125A: at most -4.2.
Take A40U A91U U102A U104C U139A: the “polymerase ribozyme fitness (log ratio)” value is at most -4.2.
The value for A40C A49C U56A A60C G84A G136A was at most -4.2; that for A40C A52U G68C C85A G128C was at most -4.2.
Regarding A40U G68C C96U C105A, the “polymerase ribozyme fitness (log ratio)” value was at most -4.2.
The value for A40C G83A A97G was -1.2.
As to A39U C95U C96A G124A, the “polymerase ribozyme fitness (log ratio)” value is -3.2.
As to A40C A89G A150G, the “polymerase ribozyme fitness (log ratio)” value is -3.25.
For the variant A40C C87U, the “polymerase ribozyme fitness (log ratio)” value was -0.91.
Consider A40C C87A, for which the “polymerase ribozyme fitness (log ratio)” value is -3.55.
As for A39U G80C A91U, the “polymerase ribozyme fitness (log ratio)” value is at most -4.2.
Next, A40G A49U A60C C76A C96U U134G: at most -4.2; A39U C69A G74C C76U C87A: at most -4.2.
The value for A40C C76U C93G G152A was at most -4.2; that for A40G G117A was -3.18.
The value for A40G C76U C95U C116G was -3.42; that for A40C G42U U55A C85A was at most -4.2.
Regarding A40U U53C, the “polymerase ribozyme fitness (log ratio)” value is 0.103.
Regarding A40U U53A, the “polymerase ribozyme fitness (log ratio)” value was -0.83.
On to A40C U56A C57U G140C, for which the “polymerase ribozyme fitness (log ratio)” value was -3.75.
Next, A40U G84U C85A: -0.755; A39U G117U: -1.04.
A40U U56A G80C G84U C99A G143U: the “polymerase ribozyme fitness (log ratio)” value was at most -4.2.
For A40C G48C U56G, the “polymerase ribozyme fitness (log ratio)” value was -1.94.
The value for A40C G92U G94A was 0.834.
The value for A40C G86A G141C A147C was at most -4.2; that for A40C A41C A49C A91U was at most -4.2; that for A40G C93U A106G C118U was -3.47.
Regarding A39U U45G C85A A91C G92C, the “polymerase ribozyme fitness (log ratio)” value is at most -4.2.
The value for A40C C76U C95A C131G G141U was -1.68; that for A40U A122C was 0.0565; that for A40C G50C C79U G81C C118U was at most -4.2.
The value for A40G G143A was -2.88; that for A39U C76G G92U C108U was at most -4.2; that for A40G A41C A52G G71U A107G U111G U139C U146G C149A U151G was at most -4.2.
Next, A40U C54U C85U C108U: at most -4.2.
For the variant A40C U82G A89G, the “polymerase ribozyme fitness (log ratio)” value came to 0.203.
The value for A40C U134A was -1.77.
The value for A40C G70A was -2.97.
Next, A40G C75G: -4.09; A40C C96U: -0.579.
On to A40U G48C C69G C85U, for which the “polymerase ribozyme fitness (log ratio)” value is -1.48.
For the variant A40U G92C U102C C103G A113G C132G U146C G152U, the “polymerase ribozyme fitness (log ratio)” value was at most -4.2.
The value for A40U A106G was 0.3.
Next, A40G C85A G133C G136A: -3.86.
Next, A40U U55A G86A G133U: at most -4.2.
For the variant A40C G50A C95U U148C, the “polymerase ribozyme fitness (log ratio)” value is at most -4.2.
Next, A40C G50A A60U G88U G92C C95G G100U: at most -4.2; A39U U139A: -3.87; A39U C69U C95U C129G: at most -4.2.
In the case of A40C A52C G83A, the “polymerase ribozyme fitness (log ratio)” value is -2.55.
The value for A40G G58C C79G C87U G136U was at most -4.2.
Take A40C A41C G59A G70U G84A C85A C105G G141C G143U: the “polymerase ribozyme fitness (log ratio)” value is at most -4.2.
For the variant A40G A60G U61C G84A, the “polymerase ribozyme fitness (log ratio)” value was -3.52.
Next, A40U C85A U144A: -0.577; A39U U55A G83U C95G A115C C149G: at most -4.2; A40C C76G U151A: at most -4.2.
The value for A40C U146G was -0.247; that for A40U A107U C132G was at most -4.2.
Next, A39U U53C C108G C149U: at most -4.2.
For the variant A40U G68A C116A A137U, the “polymerase ribozyme fitness (log ratio)” value was at most -4.2.
Turning to A39U U55G G88A U104A U135A U144C C149A, the “polymerase ribozyme fitness (log ratio)” value was at most -4.2.
The value for A39U C85G C96A A107G was at most -4.2; that for A40U G50U G80A G126A C132G was at most -4.2.
As for A40C G92C, the “polymerase ribozyme fitness (log ratio)” value was -1.84.
The value for A40G A47G U144G was -2.26; that for A40G C96U was -1.81.
The value for A40U A137U G140C was -4.19; that for A40U A106G C131U was 1.54.
The value for A40G A64G G136A was at most -4.2; that for A40U A41C A49G C96A was -1.32.
As to A40U A47C A89U U134G, the “polymerase ribozyme fitness (log ratio)” value was -2.3.
For the variant A39U G100C U148A, the “polymerase ribozyme fitness (log ratio)” value was -4.2.
The value for A40C G48A G58A C87U was -2.55; that for A39U U78A G83A G84C A115U U134C G136U was at most -4.2; that for A40G G81A G88C was at most -4.2.
For A40C U55G G58A U130A U135C, the “polymerase ribozyme fitness (log ratio)” value is at most -4.2.
Next, A39U G46A C93G A119U U139G: at most -4.2; A40C C96G A119G: 0.217; A39U U77G G124C U135G U146A: at most -4.2.
With A40U G58C A113C G124A, the “polymerase ribozyme fitness (log ratio)” value was -2.93.
The value for A40U C57G was 0.32; that for A40C C85A G92U A119C A147C was at most -4.2.
The value for A40U A52G G58C C75U G141U was -2.07; that for A40G A73U A89G C93G U104G A106G U134A was at most -4.2; that for A39U C69U C75U G84U U127G was at most -4.2.
The value for A40G C43G A64C was at most -4.2.
For A40G G42U G74C, the “polymerase ribozyme fitness (log ratio)” value was at most -4.2.
With A40C C75G C85A G141U, the “polymerase ribozyme fitness (log ratio)” value was at most -4.2.
The value for A40G A73G G86A was -4.16; that for A40C G46C C57A G74C C103A A107U C118G U134G G140C was at most -4.2; that for A39U U44C U53A G62U G86A was at most -4.2.
For the variant A40U A47C A66C C76U C93A A98G C99G U104C A150U, the “polymerase ribozyme fitness (log ratio)” value is at most -4.2.
Next, A39U C72A G83A A137U: at most -4.2; A39U G46C G48A G50C U56A G84U: at most -4.2; A40G A52C A66U C75G C79G A120C: at most -4.2.
Regarding A39U C96A, the “polymerase ribozyme fitness (log ratio)” value is -2.81.
Consider A39U C96G, for which the “polymerase ribozyme fitness (log ratio)” value was -2.11.
A40C A47C C93A A137G U146C: the “polymerase ribozyme fitness (log ratio)” value is -4.13.
On to A40C G62U A119U, for which the “polymerase ribozyme fitness (log ratio)” value is -0.408.
The value for A40C C95U was -0.646.
The value for A40U U61G C69U was -1.67; that for A40G G58C C87A C103G A110U U135A was at most -4.2; that for A40G A64C G70A C114U was at most -4.2.
Take A40C G50A: the “polymerase ribozyme fitness (log ratio)” value was -2.43.
Next, A40C G100U U102G U135A: at most -4.2.
Regarding A40U C69U G84C G143C, the “polymerase ribozyme fitness (log ratio)” value is at most -4.2.
The value for A40U C57G C105A was -0.98; that for A40U A60C was -1.31; that for A40C U56A A89G was -0.978.
Next, A39U G50U G83A C96G C103U U135G: at most -4.2.
With A40U A89C C114U, the “polymerase ribozyme fitness (log ratio)” value was -2.95.
Next, A40C U53A: 0.24.
The value for A40C C54A A89U G94U was -2.57; that for A40C C131G was -3.13; that for A40U A52G C132G was -3.47.
Next, A40G A52C G83U A98C: -3.64; A39U U56A C93U: -3.55; A40C G140U: -3.39.
Turning to A40C U55A G88A C108G C118U U130A, the “polymerase ribozyme fitness (log ratio)” value is at most -4.2.
The value for A40U A97U C108U was at most -4.2; that for A40C C93A was -1.96.
In the case of A39U G86A, the “polymerase ribozyme fitness (log ratio)” value is -3.06.
The value for A39U G68A A73G C87G C132A G141C U144C was at most -4.2.
For the variant A40C U148A, the “polymerase ribozyme fitness (log ratio)” value is -3.51.
The value for A40G G48C A49C was at most -4.2; that for A39U G48C G67A C85G G86U G88A G92A C118G was at most -4.2.
Next, A40C A119C: 0.851.
The value for A40G A60C U61A G81C U90G G94A C123A U139A was at most -4.2; that for A40G A41U A49U G58C G74U C85A U139G G141C U148C was at most -4.2; that for A40G A47C C57U C85A A115U A119C A122G U144A was at most -4.2.
As for A40C A52U U55A C93U, the “polymerase ribozyme fitness (log ratio)” value is -3.92.
The value for A40G A52G A91C A119U G128A was at most -4.2; that for A40C G92A U109C G141U was at most -4.2; that for A41C A47U G59U U61A G70C G84U C125A was at most -4.2.
Next, A40G U45A U56A A60G G71C C118G: at most -4.2.
Next, A40U G88C U101G: at most -4.2; A40C G94U C95G: -3.87.
On to A40U G50C A52G C85A U90C A97U, for which the “polymerase ribozyme fitness (log ratio)” value was at most -4.2.
The value for A40C C57A U139C was -3.43; that for A40C G42A A49G G62C C93A was at most -4.2.
